We go through 19 sequences from the supplement of paper PMC9732359.

The series is described as follows: protein stability index of a GFP-peptide fusion (yeast GPS) (PSI 1-4); higher = more stable; sorted into four equal gates, so the index is relative within each strain. A digest of the protocol: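 Tiled 17-residue peptides from yeast proteins were fused downstream of GFP on a plasmid that also expresses Cherry, and the pooled library was carried in yeast. Mid-log cultures grown in leucine-free medium were sorted into four equal gates by GFP/Cherry fluorescence ratio. Plasmids from each gate were PCR-amplified and Illumina-sequenced, and reads were assigned to strains by barcodes. Each peptide's protein stability index is the sum, over gates, of the gate's read frequency multiplied by its gate number.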

± gives the uncertainty stated by the source.

Consider EEWLNTKDPDEQQLFEI [CSN9], for which the protein stability index was determined as 3.06 ± 0.11 (doa10∆), 3.16 ± 0.12 (pdr5∆), 3.24 ± 0.051 (san1∆) and 3.15 ± 0.075 (ubr1∆).

In the case of APIADDNHSGDATANAT [DSN1], the protein stability index is 3.15 ± 0.1 (doa10∆), 3.08 ± 0.071 (pdr5∆), 3.27 ± 0.083 (san1∆) and 3.38 ± 0.076 (ubr1∆).

For the sequence GLNRHYYSLNIDYHKTA [RPN11], the protein stability index by setting is: (pdr5∆) 2.27 ± 0.29; (san1∆) 2.85 ± 0.12; (ubr1∆) 2.61 ± 0.14.

Regarding EQFPFYLHDNASKVLLK [IRR1], the protein stability index reads like this: (doa10∆) 2.45 ± 0.081; (pdr5∆) 2.47 ± 0.065; (san1∆) 1.91 ± 0.075; (ubr1∆) 2.41 ± 0.052.

As for GYFGKVGMRYFHKQQAH [RPL28], the protein stability index (doa10∆) came out at 2.6 ± 0.14, the protein stability index (pdr5∆) was 2.76 ± 0.095, the protein stability index (san1∆) came out at 2.89 ± 0.12 and the protein stability index (ubr1∆) stood at 2.84 ± 0.05.

With SDAKEQHQSLSRSSSKN [ESC2], the protein stability index by setting is: (doa10∆) 2.85 ± 0.14; (pdr5∆) 3.21 ± 0.14; (san1∆) 3.26 ± 0.074; (ubr1∆) 3.27 ± 0.11.

Take RKDLRDKLICSIDPPGC [DIS3]: the protein stability index was found to be 2.96 ± 0.066 (doa10∆), 2.91 ± 0.047 (pdr5∆), 2.67 ± 0.055 (san1∆) and 3.03 ± 0.051 (ubr1∆).

For the sequence QVKVKGQLGEMAKCLDN [YCS4], the protein stability index is, setting by setting: (doa10∆) 3.25 ± 0.11; (pdr5∆) 3.17 ± 0.13; (san1∆) 3.19 ± 0.066; (ubr1∆) 2.73 ± 0.076.

Consider IHKQIVIEMKRCFENLQ [UBP6], for which the protein stability index by setting is: (doa10∆) 2.75 ± 0.097; (pdr5∆) 2.13 ± 0.093; (san1∆) 3.1 ± 0.064; (ubr1∆) 2.87 ± 0.1.

As to VNLSQEALQYDPQPFLK [SNU114], the protein stability index reads like this: (doa10∆) 2.99 ± 0.056; (pdr5∆) 2.84 ± 0.061; (san1∆) 2.97 ± 0.044; (ubr1∆) 3 ± 0.046.

In the case of KTANSSSDAFEKLKVNM [YIL149C/MLP2], the protein stability index runs as follows: (doa10∆) 2.46 ± 0.053; (pdr5∆) 2.54 ± 0.065; (san1∆) 2.95 ± 0.065; (ubr1∆) 3.02 ± 0.051.

Take GCIPGNRKRIVTLRKSL [RPL3]: the protein stability index (doa10∆) was found to be 1.38 ± 0.069, the protein stability index (pdr5∆) was 1.5 ± 0.083, the protein stability index (san1∆) turned out to be 1.6 ± 0.2 and the protein stability index (ubr1∆) worked out at 1.26 ± 0.061.

As for FSNVNELQEKNVELLNC [YIL149C/MLP2], the protein stability index worked out at 3.09 ± 0.082 (doa10∆), 3.29 ± 0.13 (pdr5∆), 3.06 ± 0.083 (san1∆) and 3.1 ± 0.075 (ubr1∆).

Turning to KSGKTIVITSITGGIIE [RRP43], the protein stability index is, setting by setting: (doa10∆) 1.6 ± 0.072; (pdr5∆) 1.84 ± 0.077; (san1∆) 2.07 ± 0.1; (ubr1∆) 1.78 ± 0.1.

For the sequence LDNFETKTEALLSDVVS [YJL041W/NSP1], the protein stability index (doa10∆) came to 2.4 ± 0.054, the protein stability index (pdr5∆) amounted to 2.72 ± 0.069, the protein stability index (san1∆) is 2.35 ± 0.063 and the protein stability index (ubr1∆) turned out to be 2.12 ± 0.059.

Regarding IELVVTEKEEAVAKAAE [RPL17A], the protein stability index runs as follows: (doa10∆) 3.41 ± 0.064; (pdr5∆) 3.33 ± 0.05; (san1∆) 3.27 ± 0.04; (ubr1∆) 3.25 ± 0.047.

QSLELMIYDDAHEISQG [BRR2] came in with a protein stability index (doa10∆) of 2.73 ± 0.04, a protein stability index (pdr5∆) of 2.92 ± 0.037, a protein stability index (san1∆) of 2.86 ± 0.037 and a protein stability index (ubr1∆) of 3.02 ± 0.035.

For the sequence SILKRHSFAVLLHERKL [NUT1], the protein stability index by setting is: (doa10∆) 2.19 ± 0.12; (pdr5∆) 2.13 ± 0.078; (san1∆) 2.26 ± 0.18; (ubr1∆) 2.45 ± 0.1.

With YIGEFEYIDDHRSGKIV [RPS22A], the protein stability index came out at 2.9 ± 0.057 (doa10∆), 3.13 ± 0.061 (pdr5∆), 2.99 ± 0.051 (san1∆) and 3.01 ± 0.043 (ubr1∆).
